# Measured values as given in patent US20260234276A1 (DOMAIN THERAPEUTICS, published 2026).
# Where “and” joins values, the source holds several entries; their conditions need not be identical. Identical values can stand only once.
# What was measured:
# [1] = molecular target: T1, human CCR8 (human, UniProt P51685 1-355); assay: cell-based or functional assay
# [2] = molecular target: T1, human CCR8; assay: cell-based or functional assay; remark: listed apart in the source
# [3] = molecular target: T2, pm4 (human, sulfated tyrosine(s) among Tyr 15, Tyr 16, Tyr 17; marked only by underlining, lost in the text); assay: ELISA on coated peptide
# Description: (§1) The specific binding properties of antibodies were evaluated by ELISA with coated CCR8 related peptides (500 ng/mL) in carbonate/bicarbonate buffer. Different peptides were used as described in Table 1 (see Example 1). Each anti-CCR8 mAb was tested at 1 μg/mL then diluted at 1/10. After an incubation at room temperature during 90 min, unbound mAbs were removed by washings. […] After washings, 3,3′,5,5′-tetramethylbenzidine (TMB) (Interchim, Montlugon, France) was added for 15 min. Then the optical density (OD) was determined by using a multiplate reader (Tecan, Lyon, France) and correlated with mAb reactivity on the panel of coated peptides.
# [4] = molecular target: T3, pm1 (human, sulfated tyrosine(s) among Tyr 15, Tyr 16, Tyr 17; marked only by underlining, lost in the text); assay: ELISA on coated peptide
# Description: as §1
# [5] = molecular target: T4, pm2 (human, sulfated tyrosine(s) among Tyr 15, Tyr 16, Tyr 17; marked only by underlining, lost in the text); assay: ELISA on coated peptide
# Description: as §1
# [6] = molecular target: T5, pm5 (human, sulfated tyrosines at Y15 and Y17); assay: ELISA on coated peptide [cont.]
# Method in brief: (§2)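 OD after 15 min TMB development reflects binding of each anti-CCR8 mAb, tested at 1 μg/mL and diluted 1/10, to CCR8-related peptides adsorbed at 500 ng/mL from carbonate/bicarbonate buffer. Antibody incubation lasted 90 min at room temperature.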
# [7] = molecular target: T6, pm6 (human, sulfated tyrosines at Y16 and Y17); assay: ELISA on coated peptide [cont.]
# Method in brief: as §2
# [8] = molecular target: T7, pm8 (human, sulfated tyrosines at Y15, Y16 and Y17); assay: ELISA on coated peptide [cont.]
# Method in brief: as §2
# [9] = molecular target: T8, pm3 (human, sulfated tyrosine at Y17); assay: ELISA on coated peptide [cont.]
# Method in brief: as §2
# [10] = molecular target: T1, human CCR8; assay: flow cytometry, human activated T cells
# Description: (§3) Briefly, 1·10⁵ cells per well in a 96 well plate were incubated with a dilution of unconjugated anti-CCR8 mAb at 10 μg/mL then diluted at 1/3.33, 4 dilution points (during 30 min at 4° C.). […] To determine EC50 value, 8 concentrations of anti-CCR8 mAb were tested. Unbound antibodies were washed away with PBS (Invitrogen by Thermofisher Scientific, Illkirch-Graffenstaden, France) supplemented by 2% Fetal Bovine Serum (Invitrogen by Thermofisher Scientific, Illkirch-Graffenstaden, France) and 2 mM EDTA (Invitrogen by Thermofisher Scientific, Illkirch-Graffenstaden, France). Subsequently, cells are centrifuged (5 min at 400 g) and bound antibody is detected with F(ab′)₂-Goat anti-Mouse IgG (H+L) Cross-Adsorbed Secondary Antibody, Alexa Fluor 488 (dilution 1/500) (Invitrogen by Thermofisher Scientific, Illkirch-Graffenstaden, France) or with F(ab′)₂-Goat anti-Human IgG Fc Secondary Antibody, PE (Invitrogen by Thermofisher Scientific, Illkirch-Graffenstaden, France) (dilution 1/1000) at 4° C. for 30 min. Detection reagent is washed away and cells are centrifuged (5 min at 400 g) and resuspended in 30 μL PBS. Bound detection antibody is quantified on a MacsQuant16 (Miltenyi, Gladbach, Germany) (B1 or B2 channel, 5000 events per acquisition).
# (§4) Binding characteristics of anti-CCR8 mAb cellular reactivity was further investigated by testing their binding to activated T cells.
# [11] = molecular target: T1, human CCR8; assay: flow cytometry, HUT78 cells (native CCR8)
# Description: The same staining protocol was applied on human CCR8 transfected CHO cell line versus wild type CHO cell line, cutaneous T cell lymphoma HUT78 cell line and human activated T cell model.
# as §3
# [12] = molecular target: T1, human CCR8; assay: flow cytometry, human activated T cells pre-incubated with 200 nM hCCL1
# Description: as §3, §4
# [13] = molecular target: T1, human CCR8; assay: competition HTRF on HEK-293 cells with hCCR8; blocked ligand CCL1-AF647 [cont.]
# [14] = molecular target: T1, human CCR8; assay: cell-based or functional assay; remark: listed apart in the source
# [15] = molecular target: T1, human CCR8; assay: cell-based or functional assay; remark: listed apart in the source
# [16] = molecular target: T5, pm5; assay: ELISA on coated peptide
# Description: as §1
# [17] = molecular target: T6, pm6; assay: ELISA on coated peptide
# Description: as §1
# [18] = molecular target: T7, pm8; assay: ELISA on coated peptide
# Description: as §1
# [19] = molecular target: T8, pm3; assay: ELISA on coated peptide
# Description: as §1
# [20] = molecular target: T1, human CCR8; assay: flow cytometry, hCCR8 transfected CHOK1 cells
# [21] = molecular target: CCR8 SNAP-tag (human, UniProt P51685 1-355, SNAP-tag labelled with Lumi4-Terbium); assay: cell-based or functional assay
# [22] = molecular target: T2, pm4; assay: ELISA on coated peptide [cont.]
# Method in brief: as §2
# [23] = molecular target: T9, pwt1 (human); assay: ELISA on coated peptide [cont.]
# T9 construct: also called unmodified peptide
# Method in brief: as §2
# [24] = molecular target: T3, pm1; assay: ELISA on coated peptide [cont.]
# Method in brief: as §2
# [25] = molecular target: T4, pm2; assay: ELISA on coated peptide [cont.]
# Method in brief: as §2
# T6 sequence (peptide, as listed by the source): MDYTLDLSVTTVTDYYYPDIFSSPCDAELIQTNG
# T2 sequence (peptide, as listed by the source): as above
# T8 sequence (peptide, as listed by the source): as above
# T5 sequence (peptide, as listed by the source): as above
# T3 sequence (peptide, as listed by the source): as above
# T7 sequence (peptide, as listed by the source): as above
# T4 sequence (peptide, as listed by the source): as above
# T9 sequence (peptide, as listed by the source): as above
Binder,"IC50 (Gi2 BRET, pH 6.5) [1]","IC50 (Gi2 BRET, pH 7.4) [1]","hCCL1 (100 nM) residual response, Protocol #2, mAb 0.08 µg/mL [2] [%]","hCCL1 (100 nM) residual response, Protocol #2, mAb 0.4 µg/mL [2] [%]","hCCL1 (100 nM) residual response, Protocol #2, mAb 10 µg/mL [2] [%]","hCCL1 (100 nM) residual response, Protocol #3, mAb 0.05 µg/mL [2] [%]","hCCL1 (100 nM) residual response, Protocol #3, mAb 0.5 µg/mL [2] [%]","hCCL1 (100 nM) residual response, Protocol #3, mAb 5 µg/mL [2] [%]",binding result [3],binding result [4],binding result [5],binding result [6],binding result [7],binding result [8],binding result [9],% of labelled cells [11] [%],IC50 (read off the curve) [13] [µg/mL],binding result [16],binding result [17],binding result [18],further results
"3-77 (antibody, human IgG1, kappa, humanized, human IgG1 kappa) heavy: not shown light: DIVMTQAAPSLSVTPGESASISCTSSKSLLHSNGNTYLYWFLQKPGQSPQLLIYRMSNLASGVPDRFSGSGSGTAFTLKISRVEAEDVGVYYCMQHREYPFTFGSGTKLEIKRTVAAPSVFIFPPSDEQLKSGTASVVCLLNNFYPREAKVQWKVDNALQSGNSQESVTEQDSKDSTYSLSSTLTLSKADYEKHKVYACEVTHQGLSSPVTKSFNRGEC",0.018 µg/ml and 0.117 nM,0.029 µg/ml and 0.194 nM,62,38,30,94,63,39,binds,binds,binds,binds,binds,binds,binds,23,~0.1,,,,% of labelled cells [10]: 79%; % of labelled cells [12]: 64%
"3-1 (antibody, V domains shown) VH: EVQLVETGGGLVQPKGSLKVSCAASGFTFNTNAMNWVRQAPGKGLEWVARIRSKSNNYATYYADSVKDRFIISRDDSQSMLYLQMNNLKTEDTAMYYCVRGGYYGTSVYFDVWGAGTTVTVSS VL: DIVMTQAAPSVPVTPGESVSISCRSSKSLLHSNGNTYLYWFLQRPGQSPQLLIYRMSNLASGVPDRFSGSGSGTAFTLRISRVEAEDVGVYYCMQHLEYPFTFGGGTKLEIK",> 4.5 µg/ml and > 30 nM,> 4.5 µg/ml and > 30 nM,,,,,,,,,,,,,,,,binds,binds,binds,binding result [19]: binds; % positive cells [20]: 38.8%; MFI fold change to isotype ctrl [20]: 2.61 fold

# Further lines, with some results ahead:
"IC50 (Gi2 BRET, pH 6.5) [1]","IC50 (Gi2 BRET, pH 7.4) [1]","hCCL1 (100 nM) residual response, Protocol #2, mAb 0.08 µg/mL [2] [%]","hCCL1 (100 nM) residual response, Protocol #2, mAb 0.4 µg/mL [2] [%]","hCCL1 (100 nM) residual response, Protocol #2, mAb 10 µg/mL [2] [%]","hCCL1 (100 nM) residual response, Protocol #3, mAb 0.05 µg/mL [2] [%]","hCCL1 (100 nM) residual response, Protocol #3, mAb 0.5 µg/mL [2] [%]","hCCL1 (100 nM) residual response, Protocol #3, mAb 5 µg/mL [2] [%]",binding result [3],binding result [4],binding result [5],binding result [6],binding result [7],binding result [8],binding result [9],% of labelled cells [11] [%],IC50 (read off the curve) [13] [µg/mL],binding result [16],binding result [17],binding result [18],Binder,further results
0.025 µg/ml and 0.165 nM,0.035 µg/ml and 0.232 nM,74,54,40,89,63,51,binds,binds,binds,binds,binds,binds,binds,32,~0.1,,,,"3-78 (antibody, human IgG1, kappa, humanized) heavy: not shown light: DIVMTQAAPSLSVTPGESASISCTSSKSLLHSNGNTYLYWFLQKPGQSPQLLIYRMSNLASGVPDRFSGSGSGTAFTLKISRVEAEDVGVYYCMQHREYPFTFGSGTKLEIKRTVAAPSVFIFPPSDEQLKSGTASVVCLLNNFYPREAKVQWKVDNALQSGNSQESVTEQDSKDSTYSLSSTLTLSKADYEKHKVYACEVTHQGLSSPVTKSFNRGEC","ADCC % Max lysis, NK cells Donor 1 [14]: 30%; ADCC % Max lysis, NK cells Donor 2 [14]: 28%; ADCC EC50, NK cells Donor 1 [14]: 6.43 pM; ADCC EC50, NK cells Donor 2 [14]: 0.42 pM; ADCP % Max of phagocytosis, monocyte-derived macrophages Donor 9 [15]: 9.65%"
,,,,,,,,,,,,,,,,,binds,binds,binds,"3-2 (antibody, V domains shown) VH: EVQLVESGGGLVKPGGSLKLSCAASGFTFSSYAMSWVRQTPEKRLEWVATINSGGSYTFYPDSVKGRFTISRDNAKNTLYLQMSSLRSVDTAIYYCARVSGYDERFAYWGQGTLVTVSA VL: DVLMTQTPLSLPVSLGAQASISCRSSQSIVHSNGNTYLEWYLQKPGQSPKLLIYKVSNRFSGVPDRFSGSGSGTDFTLKLSRVEAEDLGVYYCFQGSHVPPTFGGGTKLEIK",binding result [19]: binds; % positive cells [20]: 51.2%; MFI fold change to isotype ctrl [20]: 3.41 fold
0.018 µg/ml and 0.117 nM,0.034 µg/ml and 0.224 nM,77,66,41,73,52,37,,,,binds,binds,binds,binds,88,,,,,"3-81 (antibody, human IgG1, kappa, V domains shown, humanized, human IgG1 kappa) VH: QVQLQQSGPEVVKPGASVKVSCKTSGYTFTEYTIHWVRQSHGQSLEWVGGINPNNGNTRYDQKFKGRVTITIDKSSSTAYMELRSLTSEDTAVYYCARVARSSGSGPYAMDYWGQGTTVTVSS VL: DVVMTQSPLSLPVTLGDQASISCRCSQSLLHTNGDTYLHWYLQRPGQSPRLLIYKVSNRFSGVPDRFSGSGSGTDFTLKISRVEAEDVGVYFCSQSTHVPYTFGGGTKVEIKR",% of internalization at 1 µg/ml mAb (HTRF) [21]: 44%; % of internalization at 10 µg/ml mAb (HTRF) [21]: 36%; binding result [22]: binds; binding result [23]: binds; binding result [24]: binds; binding result [25]: binds; EC50 [11]: 200 pM
